# Laboratory results published in US20190282673A1, “STAPHTAME ACTIVITY ON BIOFILMS” (priority 2016, published 2019).
# B1: P128: anti-staphylococcal chimeric protein: phage tail associated muralytic enzyme (TAME) cell wall-degrading region plus staphylococcus-specific binding region; SEQ ID NO: 1 (protein)
# chain: MSLDSLKKYNGKLPKHDPSFVQPGNRHYKYQCTWYAYNRRGQLGIPVPLWGDAADWIGGAKGAGYGVGRTPKQGACVIWQRGVQGGSPQYGHVAFVEKVLDGGKKIFISEHNYATPNGYGTRTIDMSSAIGKNAQFIYDKKLETPNTGWKTNKYGTLYKSESASFTPNTDIITRTTGPFRSMPQSGVLKAGQTIHYDEVMKQDGHVWVGYTGNSGQRIYLPVRTWNKSTNTLGVLWGTIK
# modifications: P128 chimera
# Key:
# [1] = test system: S. aureus BK1 biofilms; assay: Scanning electron microscopy of treated biofilms in microtitre plates; format: cell-based, Staphylococcus aureus; details: Gentamycin 50 μg/mL; P128 12.5 μg/mL (lowest concentration tested)
# Method: MRSA strain BK1 or MW2 was used for studying biofilm eradication activity of P128 by SEM. For this, biofilms formed in microtitre plates or on the surface of catheters were treated with increasing concentrations of P128 or antibiotics and subjected to SEM. S. aureus BK1 or MW2 was revived on blood agar plates and the culture was grown overnight in TSB supplemented with 20% glucose. The overnight-grown culture was diluted 1:50 in TSB with 2% glucose to achieve OD600=˜0.1. 200 μL of the diluted culture was aliquoted into each well of the 96 well plate and incubated at 37° C. under static conditions for 18 h. After incubation the contents were aspirated, washed twice with 200 μL of PBS, and 100 μL of media+100 μL of drug were added to each well and incubated again at 37° C. for 18 h. The contents were aspirated, washed with 200 μL of PBS and allowed to dry at 37° C. for 15 min. The individual wells were cut out and biofilms visualized by SEM.
# [2] = test system: multi-species biofilm (P. aeruginosa PAO1, S. aureus ATCC 700699, E. faecalis ATCC 29212); assay: Lubbock chronic wound pathogenic biofilm (LCWPB) mixed culture model; format: cell-based; details: for CFU/mL of P. aeruginosa / CFU/mL of E. faecalis / CFU/mL of S. aureus: 24 h
# Method: LCWPB media (Bolton broth, Oxoid Ltd, supplemented with 50% Bovine Plasma and 5% hemolyzed horse blood) was used for multi-species biofilm formation according to the procedure described. Sun, et al. (2008) “In vitro multispecies Lubbock chronic wound biofilm model” Wound Repair Regen. 16:805-13. Briefly, P. aeruginosa PAO1, E. faecalis ATCC 29212 and S. aureus ATCC 700699 grown on TSB agar plates were inoculated into TSB broth and grown at 37° C. in a shaker for 16 h. The cultures were individually diluted to 1×10^6 CFU/mL, mixed in equal volumes, and 10 μL was added to 3 mL of LCWPB media containing a sterile pipette tip. For biofilm formation either two (P. aeruginosa PAO1, and S. aureus ATCC 700699) or all three bacterial species (P. aeruginosa PAO1, E. faecalis ATCC 29212 and S. aureus ATCC 700699) were inoculated into LCWPB media. In this model the pipette tip acts as a surface for biofilm formation. To test the ability of P128 to prevent biofilm formation, P128 at 10, 50 and 250 μg/mL was added to the tubes and the tubes were incubated at 37° C. in a shaker for 24 h with shaking at 150 rpm. Upon completion of incubation, the tips were removed from the tubes and placed on petri plates for observation. In the absence of P128, a confluent and thick mass of biofilm could be seen. The mass of the biofilm was greater in culture tubes with 3 species than in the ones with 2 species. For enumeration of bacteria in biofilms, the biofilm formed on the tips was washed twice in PBS, transferred into clean test tubes, and again washed twice with PBS. The washed biofilm mass was then transferred to a 50 mL conical polypropylene tube and the biofilm was macerated with sterile scissors. In situations when biofilm formation was not visible, the tips alone were processed as described above. The contents were vortexed thoroughly, diluted and plated on TSA plates. The plates were incubated for 24 h at 37° C. followed by incubation at ambient temperature for 24 h to enhance pigment production.
# [3] = test system: S. aureus small colony variants (hemB and menD mutants); assay: Lawn inhibition assay on small colony variants; format: cell-based, Staphylococcus aureus
# Method: Two S. aureus small colony variants viz., hemB mutant and menD mutants were characterized for SCV phenotype and auxotrophy for hemin and menadione. Both the isolates were revived on LB agar with and without Erythromycin (5 μg/mL) and Blood agar medium and incubated at 37° C. for 48 hr.
# P128 was tested on both the mutants by lawn inhibition assay and the SCV's were susceptible to P128.
# [4] = test system: S. epidermidis stationary phase cells; assay: P128 activity on stationary phase cells (CFU); format: cell-based, Staphylococcus epidermidis; details: 10 μg/mL P128, 2 h
# Excerpt: (§1) Most in vitro studies examining the activity of antibiotics have been performed on rapidly dividing planktonic bacterial cultures supplemented with rich growth media. However, in infections, bacteria seldom encounter optimal conditions that allow logarithmic growth. It is likely that stationary-phase or non dividing bacteria are common in many persistent Staphylococcus infections such as endocarditis and osteomyelitis and in biofilm-associated infections (e.g., on catheters, grafts, and foreign bodies). Therefore, activity of P128 was determined on stationary phase cells of three S. aureus strains, three S. epidermidis, and two each of S. lugdunensis and S. haemolyticus strains. Briefly, the test cultures were grown overnight in LB (˜10^9 cells), centrifuged, pellet was washed and resuspended in saline. Optical density (OD600) was adjusted to 0.2 (˜10^8 CFU/mL). 100 μL of these cells were treated with 10 μg/mL P128 (in saline) and incubated at 37° C. for 2 h, 200 rpm, cell controls without proteins were maintained. Following incubation, the volume was made up to 1 mL with saline, serially log diluted in saline and plated on LB agar. Incubated at 37° C. for 18 h to enumerate residual CFU to determine cell killing.
# [5] = test system: S. haemolyticus stationary phase cells; assay: P128 activity on stationary phase cells (CFU); format: cell-based; details: 10 μg/mL P128, 2 h
# Excerpt: as §1
# [6] = test system: S. lugdunensis stationary phase cells; assay: P128 activity on stationary phase cells (CFU); format: cell-based; details: 10 μg/mL P128, 2 h
# Excerpt: as §1
# [7] = test system: S. epidermidis; assay: P128 MIC in CAMHB and serum; format: cell-based, Staphylococcus epidermidis
# [8] = test system: S. lugdunensis; assay: P128 MIC in CAMHB and serum; format: cell-based
# [9] = two species (P. aeruginosa PAO1, S. aureus ATCC 700699), P128 10 μg/mL
molecule,measurement,setting,value
B1,Effect on biofilm by SEM,[1],destroyed the biofilm structure and lysed the bacterial cells completely
same,Prevention of biofilm formation,[2]; P128 1×MIC (10 μg/mL),prevented the formation of biofilms
same,CFU/mL of P. aeruginosa,"[2]; three species (P. aeruginosa PAO1, S. aureus ATCC 700699, E. faecalis ATCC29212), P128 10 μg/mL",2.2 × 10^5 CFU/mL
same,CFU/mL of E. faecalis,"[2]; three species, P128 10 μg/mL",9 × 10^5 CFU/mL
same,CFU/mL of S. aureus,"[2]; three species, P128 10 μg/mL",2 × 10^4 CFU/mL
same,CFU/mL of E. faecalis,"[2]; three species, P128 50 μg/mL",1.8 × 10^4 CFU/mL
same,CFU/mL of P. aeruginosa,"[2]; three species, P128 50 μg/mL",7 × 10^4 CFU/mL
same,CFU/mL of S. aureus,"[2]; three species, P128 50 μg/mL",2 × 10^3 CFU/mL
same,CFU/mL of E. faecalis,"[2]; three species, P128 250 μg/mL",1.6 × 10^4 CFU/mL
same,CFU/mL of P. aeruginosa,"[2]; three species, P128 250 μg/mL",1.7 × 10^5 CFU/mL
same,CFU/mL of S. aureus,"[2]; three species, P128 250 μg/mL",<10 CFU/mL
same,CFU/mL of P. aeruginosa,[2]; [9],2 × 10^6 CFU/mL
same,CFU/mL of S. aureus,[2]; [9],2.2 × 10^5 CFU/mL
same,CFU/mL of P. aeruginosa,"[2]; two species, P128 50 μg/mL",1.5 × 10^5 CFU/mL
same,CFU/mL of S. aureus,"[2]; two species, P128 50 μg/mL",1.8 × 10^5 CFU/mL
same,CFU/mL of P. aeruginosa,"[2]; two species, P128 250 μg/mL",8 × 10^5 CFU/mL
same,CFU/mL of S. aureus,"[2]; two species, P128 250 μg/mL",2 × 10^3 CFU/mL
same,Lawn inhibition,[3],susceptible
same,"CFU/mL, P128 treated",[4]; S. epidermidis B9467 stationary phase,3.7 × 10^2 CFU/mL
same,"CFU/mL, P128 treated",[4]; S. epidermidis B9470 stationary phase,1.5 × 10^2 CFU/mL
same,"CFU/mL, P128 treated",[4]; S. epidermidis B9472 stationary phase,7 × 10^1 CFU/mL
same,"CFU/mL, P128 treated",[5]; S. haemolyticus B9478 stationary phase,1.1 × 10^3 CFU/mL
same,"CFU/mL, P128 treated",[5]; S. haemolyticus B9479 stationary phase,6 × 10^2 CFU/mL
same,"CFU/mL, P128 treated",[6]; S. lugdunensis B9474 stationary phase,4.9 × 10^2 CFU/mL
same,"CFU/mL, P128 treated",[6]; S. lugdunensis B9475 stationary phase,2.7 × 10^4 CFU/mL
same,Fold reduction in serum MIC,[7]; S. epidermidis B9470,32 fold
same,MIC of P128 in CAMHB,[7]; S. epidermidis B9470,4 μg/ml and (0.14) μM
same,MIC of P128 in Serum,[7]; S. epidermidis B9470,0.12 μg/ml and (0.004) μM
same,Fold reduction in serum MIC,[7]; S. epidermidis B9473,4 fold
same,MIC of P128 in CAMHB,[7]; S. epidermidis B9473,16 μg/ml and (0.58) μM
same,MIC of P128 in Serum,[7]; S. epidermidis B9473,4 μg/ml and (0.14) μM
same,24 h P128 MIC for serum time-kill,"[7]; S. epidermidis, fetal calf serum",0.25 mg/L
same,Fold reduction in serum MIC,[8]; S. lugdunensis B9476,8 fold
same,MIC of P128 in CAMHB,[8]; S. lugdunensis B9476,4 μg/ml and (0.14) μM
same,MIC of P128 in Serum,[8]; S. lugdunensis B9476,0.5 μg/ml and (0.017) μM
same,Fold reduction in serum MIC,[8]; S. lugdunensis B9510,32 fold
same,MIC of P128 in CAMHB,[8]; S. lugdunensis B9510,16 μg/ml and (0.58) μM
same,MIC of P128 in Serum,[8]; S. lugdunensis B9510,0.5 μg/ml and (0.017) μM
same,24 h P128 MIC for serum time-kill,"[8]; S. lugdunensis, fetal calf serum",0.50 mg/L
